Measured values published in patent US20220251236A1 (Boehringer Ingelheim, published 2022).

T1: EGF1+2
T1 construct: also called Hu DLL3 EGF1+2 on HEK293 cells
T1 membrane-anchored DLL3 subdomain construct: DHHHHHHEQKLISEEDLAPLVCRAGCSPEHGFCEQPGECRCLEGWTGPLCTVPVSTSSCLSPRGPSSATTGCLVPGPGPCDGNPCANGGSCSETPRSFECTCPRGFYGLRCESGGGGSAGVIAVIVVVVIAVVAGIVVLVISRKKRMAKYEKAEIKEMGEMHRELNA

T2: EGF2+3
T2 construct: also called Hu DLL3 EGF2+3 on HEK293 cells
T2 membrane-anchored DLL3 subdomain construct: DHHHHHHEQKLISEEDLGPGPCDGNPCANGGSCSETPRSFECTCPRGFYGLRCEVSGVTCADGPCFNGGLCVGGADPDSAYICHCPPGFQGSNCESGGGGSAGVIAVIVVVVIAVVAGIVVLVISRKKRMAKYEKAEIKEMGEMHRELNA

T3: EGF3+4
T3 construct: also called Hu DLL3 EGF3+4 on HEK293 cells
T3 membrane-anchored DLL3 subdomain construct: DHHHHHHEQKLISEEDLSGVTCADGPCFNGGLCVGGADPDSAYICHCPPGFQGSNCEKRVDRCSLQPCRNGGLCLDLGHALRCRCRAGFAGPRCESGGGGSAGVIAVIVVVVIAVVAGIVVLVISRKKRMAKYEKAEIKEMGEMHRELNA

T4: EGF4+5
T4 construct: also called Hu DLL3 EGF4+5 on HEK293 cells
T4 membrane-anchored DLL3 subdomain construct: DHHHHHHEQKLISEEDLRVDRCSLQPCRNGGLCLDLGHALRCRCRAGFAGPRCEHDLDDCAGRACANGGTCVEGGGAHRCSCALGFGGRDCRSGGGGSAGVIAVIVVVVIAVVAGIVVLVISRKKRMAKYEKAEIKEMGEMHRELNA

T5: EGF5+6
T5 construct: also called Hu DLL3 EGF5+6 on HEK293 cells
T5 membrane-anchored DLL3 subdomain construct: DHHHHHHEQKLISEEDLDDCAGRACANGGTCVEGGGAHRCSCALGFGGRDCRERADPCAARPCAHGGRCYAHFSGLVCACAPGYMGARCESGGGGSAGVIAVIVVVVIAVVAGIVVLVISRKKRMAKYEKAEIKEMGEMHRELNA

T6: EGF6+MEMBRANE PROXIMAL PEPTIDE
T6 construct: also called Hu DLL3 EGF6+membrane proximal peptide on HEK293 cells
T6 membrane-anchored DLL3 subdomain construct: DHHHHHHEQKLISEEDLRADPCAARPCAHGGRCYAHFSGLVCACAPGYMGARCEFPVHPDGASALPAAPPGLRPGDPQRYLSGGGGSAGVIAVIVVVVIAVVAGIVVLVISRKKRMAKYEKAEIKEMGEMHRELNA

B1: DLL3#2/CD3#1 (bispecific antibody, human IgG1, kappa, lambda, L234A L235A)
chain 1: DIQMTQSPSAMSASVGDRVTITCRASQGISNYLAWFQQKPGKVPEPLIYAASSLQSGVPSRFSGSGSVTEFTLTISSLQPEDFATYYCLQHNSSPYTFGQGTKLEIKRTVAAPSVFIFPPSDEQLKSGTASVVCLLNNFYPREAKVQWKVDNALQSGNSQESVTEQDSKDSTYSLSSTLTLSKADYEKHKVYACEVTHQGLSSPVTKSFNRGECGGGGSEGKSSGSGSESKSTEGKSSGSGSESKSTGGGGSQVQLVQSGAEVKKPGASVKVSCKASGYTFTSYYMHWVRQAPGQGLEWMGIINPSGGSTSYAQKFQGRVTMTRDTSTSTVYMELSSLRSEDTAVYYCARGEAVGGNYYYYGMDVWGQGTTVTVSSASTKGPSVFPLAPSSKSTSGGTAALGCLVKDYFPEPVTVSWNSGALTSGVHTFPAVLQSSGLYSLSSVVTVPSSSLGTQTYICNVNHKPSNTKVDKRVEPKSCDKTHTCPPCPAPEAAGGPSVFLFPPKPKDTLMISRTPEVTCVVVDVSHEDPEVKFNWYVDGVEVHNAKTKPREEQYNSTYRVVSVLTVLHQDWLNGKEYKCKVSNKALPAPIEKTISKAKGQPREPQVYTLPPSREEMTKNQVSLWCLVKGFYPSDIAVEWESNGQPENNYKTTPPVLDSDGSFFLYSKLTVDKSRWQQGNVFSCSVMHEALHNHYTQKSLSLSPG
chain 2: EAVVTQEPSLTVSPGGTVTLTCRSSTGAVTTSNYANWVQEKPGQLPRGLIGGTNKRAPWVPARFSGSLLGGKAALTLSGAQPEDEAEYFCALWYSNLWVFGGGTKLTVLGQPKAAPSVTLFPPSSEELQANKATLVCLISDFYPGAVKVAWKADGSPVNTGVETTTPSKQSNNKYAASSYLSLTPEQWKSHRSYSCQVTHEGSTVEKTVAPAECSGGGGSEGKSSGSGSESKSTEGKSSGSGSESKSTGGGGSEVQLVESGGGLVQPGGSLKLSCAASGFTFNTYAMNWVRQAPGKGLEWVARIRSKYNNYATYYADSVKDRFTISRDDSKNTAYLQMNNLKTEDTAVYYCVRHGNFGNSYVSWFAYWGQGTLVTVSAASTKGPSVFPLAPSSKSTSGGTAALGCLVKDYFPEPVTVSWNSGALTSGVHTFPAVLQSSGLYSLSSVVTVPSSSLGTQTYICNVNHKPSNTKVDKRVEPKSCDKTHTCPPCPAPEAAGGPSVFLFPPKPKDTLMISRTPEVTCVVVDVSHEDPEVKFNWYVDGVEVHNAKTKPREEQYNSTYRVVSVLTVLHQDWLNGKEYKCKVSNKALPAPIEKTISKAKGQPREPQVYTLPPSREEMTKNQVSLSCAVKGFYPSDIAVEWESNGQPENNYKTTPPVLDSDGSFFLVSKLTVDKSRWQQGNVFSCSVMHEALHNRFTQKSLSLSPG
notes: Heterodimer of one DLL3 chain and one CD3 chain (scFab-Fc, knob-in-hole)
B2: DLL3#5/CD3#1 (bispecific antibody, human IgG1, kappa, lambda, L234A L235A)
chain 1: not shown
chain 2: EAVVTQEPSLTVSPGGTVTLTCRSSTGAVTTSNYANWVQEKPGQLPRGLIGGTNKRAPWVPARFSGSLLGGKAALTLSGAQPEDEAEYFCALWYSNLWVFGGGTKLTVLGQPKAAPSVTLFPPSSEELQANKATLVCLISDFYPGAVKVAWKADGSPVNTGVETTTPSKQSNNKYAASSYLSLTPEQWKSHRSYSCQVTHEGSTVEKTVAPAECSGGGGSEGKSSGSGSESKSTEGKSSGSGSESKSTGGGGSEVQLVESGGGLVQPGGSLKLSCAASGFTFNTYAMNWVRQAPGKGLEWVARIRSKYNNYATYYADSVKDRFTISRDDSKNTAYLQMNNLKTEDTAVYYCVRHGNFGNSYVSWFAYWGQGTLVTVSAASTKGPSVFPLAPSSKSTSGGTAALGCLVKDYFPEPVTVSWNSGALTSGVHTFPAVLQSSGLYSLSSVVTVPSSSLGTQTYICNVNHKPSNTKVDKRVEPKSCDKTHTCPPCPAPEAAGGPSVFLFPPKPKDTLMISRTPEVTCVVVDVSHEDPEVKFNWYVDGVEVHNAKTKPREEQYNSTYRVVSVLTVLHQDWLNGKEYKCKVSNKALPAPIEKTISKAKGQPREPQVYTLPPSREEMTKNQVSLSCAVKGFYPSDIAVEWESNGQPENNYKTTPPVLDSDGSFFLVSKLTVDKSRWQQGNVFSCSVMHEALHNRFTQKSLSLSPG
notes: as for B1
B3: DLL3#13/CD3#1 (bispecific antibody, human IgG1, kappa, lambda, L234A L235A)
chain 1: DVLMTQTPLSLPVSLGDQAAISCRSSQSIVHSNGNTYLEWYLQKPGQSPKVLIYKVSNRFSGVPDRFSGSGSGTDFTLKISRVEAEDLGVYYCFQGSHVPYTFGGGTKLEIKRTVAAPSVFIFPPSDEQLKSGTASVVCLLNNFYPREAKVQWKVDNALQSGNSQESVTEQDSKDSTYSLSSTLTLSKADYEKHKVYACEVTHQGLSSPVTKSFNRGECGGGGSEGKSSGSGSESKSTEGKSSGSGSESKSTGGGGSQIQLVQSGPELKKPGETVKISCKASGYTFTNYGVTWVKQAPGKGLKWMGWINTYSGAPTYADDFNGRFALSLETSASTAYLQINNLKNEDTATYFCARLDDYDLYYFDYWGQGTALTVSSASTKGPSVFPLAPSSKSTSGGTAALGCLVKDYFPEPVTVSWNSGALTSGVHTFPAVLQSSGLYSLSSVVTVPSSSLGTQTYICNVNHKPSNTKVDKRVEPKSCDKTHTCPPCPAPEAAGGPSVFLFPPKPKDTLMISRTPEVTCVVVDVSHEDPEVKFNWYVDGVEVHNAKTKPREEQYNSTYRVVSVLTVLHQDWLNGKEYKCKVSNKALPAPIEKTISKAKGQPREPQVYTLPPSREEMTKNQVSLWCLVKGFYPSDIAVEWESNGQPENNYKTTPPVLDSDGSFFLYSKLTVDKSRWQQGNVFSCSVMHEALHNHYTQKSLSLSPG
chain 2: EAVVTQEPSLTVSPGGTVTLTCRSSTGAVTTSNYANWVQEKPGQLPRGLIGGTNKRAPWVPARFSGSLLGGKAALTLSGAQPEDEAEYFCALWYSNLWVFGGGTKLTVLGQPKAAPSVTLFPPSSEELQANKATLVCLISDFYPGAVKVAWKADGSPVNTGVETTTPSKQSNNKYAASSYLSLTPEQWKSHRSYSCQVTHEGSTVEKTVAPAECSGGGGSEGKSSGSGSESKSTEGKSSGSGSESKSTGGGGSEVQLVESGGGLVQPGGSLKLSCAASGFTFNTYAMNWVRQAPGKGLEWVARIRSKYNNYATYYADSVKDRFTISRDDSKNTAYLQMNNLKTEDTAVYYCVRHGNFGNSYVSWFAYWGQGTLVTVSAASTKGPSVFPLAPSSKSTSGGTAALGCLVKDYFPEPVTVSWNSGALTSGVHTFPAVLQSSGLYSLSSVVTVPSSSLGTQTYICNVNHKPSNTKVDKRVEPKSCDKTHTCPPCPAPEAAGGPSVFLFPPKPKDTLMISRTPEVTCVVVDVSHEDPEVKFNWYVDGVEVHNAKTKPREEQYNSTYRVVSVLTVLHQDWLNGKEYKCKVSNKALPAPIEKTISKAKGQPREPQVYTLPPSREEMTKNQVSLSCAVKGFYPSDIAVEWESNGQPENNYKTTPPVLDSDGSFFLVSKLTVDKSRWQQGNVFSCSVMHEALHNRFTQKSLSLSPG
notes: as for B1

How the values were obtained:
Human CD3 E+G HuFc-6xHis = biological target: T7, Human CD3 E+G HuFc-6xHis (human); experiment: SPR (ProteOn XPR36), HuCD3E_HuCD3G-Fc amine-coupled, bispecific as analyte, Example 4B
T7 construct: also called hu CD3εγ-Fc
Procedure, shortened: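 SPR kinetics with the bispecific constructs flowed as analyte over a directly amine-coupled (pH 4.5 acetate) human CD3εγ-Fc surface. Association runs 600 s and dissociation 1800 s, at 30 μl/min in PBS-T-EDTA.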

[1] = biological target: T8, FLAG-tagged human DLL4 full length (human, UniProt Q9NR61 1-685); experiment: flow cytometry on HEK293 cells expressing human DLL4 (HEK293-huDLL4), PE anti-human secondary, control: secondary antibody only
T8 construct: also called human DLL4 on HEK293 cells
Protocol: Bound molecules were detected with PE-conjugated anti-human secondary antibody (Sigma-Aldrich, #P8047). As negative control, cells were incubated with secondary antibody only. The samples were measured by flow-cytometry.

EGF1+2 = biological target: T1, EGF1+2; experiment: flow cytometry on HEK293 cells expressing the DLL3 subdomain construct, PE anti-human secondary, control: secondary antibody only
Procedure, shortened: (§1)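 Binders tested on HEK293 cells displaying the DLL3 subdomain construct; bound molecules detected by flow cytometry using PE-conjugated anti-human secondary antibody. Negative control: cells with secondary antibody only.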

EGF2+3 = biological target: T2, EGF2+3; experiment: as above
Procedure, shortened: as §1

EGF3+4 = biological target: T3, EGF3+4; experiment: as above
Procedure, shortened: as §1

EGF4+5 = biological target: T4, EGF4+5; experiment: as above
Procedure, shortened: as §1

EGF5+6 = biological target: T5, EGF5+6; experiment: as above
Procedure, shortened: as §1

[2] = biological target: T6, EGF6+MEMBRANE PROXIMAL PEPTIDE; experiment: as above
Procedure, shortened: as §1

T7 sequence (chain, as listed by the source limits assumed): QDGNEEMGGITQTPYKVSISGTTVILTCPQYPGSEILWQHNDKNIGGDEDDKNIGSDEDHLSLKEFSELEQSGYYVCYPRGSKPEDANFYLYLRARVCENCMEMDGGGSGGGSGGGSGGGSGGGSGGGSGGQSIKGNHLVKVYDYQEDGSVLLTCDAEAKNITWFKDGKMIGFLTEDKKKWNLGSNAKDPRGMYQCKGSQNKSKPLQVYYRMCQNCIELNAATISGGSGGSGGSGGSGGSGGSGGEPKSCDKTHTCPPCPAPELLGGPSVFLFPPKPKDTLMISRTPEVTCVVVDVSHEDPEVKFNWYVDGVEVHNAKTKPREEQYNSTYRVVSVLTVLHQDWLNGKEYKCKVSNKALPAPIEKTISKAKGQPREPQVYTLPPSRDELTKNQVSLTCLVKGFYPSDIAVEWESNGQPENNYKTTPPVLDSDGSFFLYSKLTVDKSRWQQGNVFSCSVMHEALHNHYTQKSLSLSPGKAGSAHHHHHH
T8 sequence (Q9NR61 other isoform, or with tags, fused parts or gaps limits assumed): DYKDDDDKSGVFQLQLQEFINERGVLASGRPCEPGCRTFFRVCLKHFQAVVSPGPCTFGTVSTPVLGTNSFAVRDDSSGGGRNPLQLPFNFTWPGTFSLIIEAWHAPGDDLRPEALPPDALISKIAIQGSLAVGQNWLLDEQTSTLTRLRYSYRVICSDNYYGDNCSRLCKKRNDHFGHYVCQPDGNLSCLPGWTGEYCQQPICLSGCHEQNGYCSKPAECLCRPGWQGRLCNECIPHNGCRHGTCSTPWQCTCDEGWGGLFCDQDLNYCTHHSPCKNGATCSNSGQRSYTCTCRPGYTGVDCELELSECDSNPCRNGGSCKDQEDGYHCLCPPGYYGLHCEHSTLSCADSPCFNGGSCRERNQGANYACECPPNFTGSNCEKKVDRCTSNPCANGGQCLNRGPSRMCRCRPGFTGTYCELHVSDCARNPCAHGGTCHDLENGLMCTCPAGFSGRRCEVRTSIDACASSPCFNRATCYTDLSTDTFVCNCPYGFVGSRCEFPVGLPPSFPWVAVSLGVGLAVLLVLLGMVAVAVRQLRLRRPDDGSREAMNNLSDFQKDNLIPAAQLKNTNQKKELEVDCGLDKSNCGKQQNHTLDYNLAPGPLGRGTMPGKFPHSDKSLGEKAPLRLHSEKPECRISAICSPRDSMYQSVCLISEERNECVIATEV

Row | Binder | Kd (Human CD3 E+G HuFc-6xHis) | binding result [1] | binding result (EGF1+2) | binding result (EGF2+3) | binding result (EGF3+4) | binding result (EGF4+5) | binding result (EGF5+6) | binding result [2]
1 | B1 | 3 nM | no binding (tested: 1.6 nM) | no binding (tested: 1.6 nM) | no binding (tested: 1.6 nM) | no binding (tested: 1.6 nM) | no binding (tested: 1.6 nM) | no binding (tested: 1.6 nM) | –
2 | B2 | 3 nM | no binding (tested: 1.6 nM) | – | no binding (tested: 1.6 nM) | no binding (tested: 1.6 nM) | no binding (tested: 1.6 nM) | no binding (tested: 1.6 nM) | no binding (tested: 1.6 nM)
3 | B3 | 3 nM | – | no binding (tested: 1.6 nM) | no binding (tested: 1.6 nM) | no binding (tested: 1.6 nM) | no binding (tested: 1.6 nM) | no binding (tested: 1.6 nM) | no binding (tested: 1.6 nM)
